The source of these data is a protein production outcome set (Wang et al. 2014).

This data set in a line: label from the status in PepcDB records.
“MSHTEAATVHSTAPASHPVRIALIGAGRIGSNHAEIVARLVPGASLVAVSDPVGESAQRLATTLGASLATTTVDDVLTSDEVDAVLITAPARSHTDLVVAAAAAGKHVFVEKPMAVTLADADRAIAAAADAGIVLQVGFNRRFAPGFAAARAAIDAQKVGAPQLLRSLTRDPGPYTADPARVPQWTIFLETLIHDFDTLCFLNPDARPVRVHAVADALVRPDAKGAGHLDTAVVTVQFDNGAIATAEASFSALYGYDVRAEVFGSGGMITAGSGLSTDMTYYGPDGMHADTARRDTDLLHSAYLGELTAFVDAIRTHTPAVVTGQDARTALSIALAAIRSVETGSAVDLDG”: the protein production entry is “failed”.
Take “MSHTLKSVAEDWFAIKKTTITEVTAKSLWRKFENHVFPKLGHRPIDKILAPEAIEALKPLAAKGNLETTGKIIGHLNNIMTHAVNTGILHHNPLSGIRSAFSAPKVTNLEHHHHHH”: the protein production entry is given as “not failed”.
The result for “MSHWLILPILLPLFAGSLLLLPLAERWQRGLSLLAALALIPLSLLLIRTAASGDLSVYALGNWAAPFGIVLMLDRLAALMLLATAVLGSAALIYALRGEDRLGKHFHALFQFQLLGINGAFLTGDLFNLFVFFEILLIASYALLLHGGGAERVRSGLHYVILNLVGSAFFLIAVGTLYGLTGTLNMADMAQKIAMADAERAPLLAAAGLLLLVVFALKAALLPLYFWLPRAYATASAPVAALFAIMTKVGIYSILRVYTLVFGDAAGELANLAQAWLWPLALATLGLGAIGALAARTLQGLLAYLVVVSAGTLLAGVALGSERALAASLYYLLHSTWIAGGLFLLADLVARQRGDKAGDLVQGPALQNPRLLGGAFFIGAIAVAGLPPLSGFFGKVMLLQSVAPGSQALALWSVVLGSGLVALVALSRAGSTLFWRTGHTVLGSAELDHGRLFACILLLSAGPLLVFAAKPLLAYVQATAAQLHDLDLYRQIITRGGAA” reads “failed”.
The result for “MSHYNPEQLNFVNNHRNNVKEGYFYKNNLLKENNNKMESSKNCIMVPLINNPSHSENNFSKNNRDENINEEKSKYQFEYQNKIIQVPELKYVDKMVYDPVIIEKVKYVPKEVIKYNIIKKPVIKNIITEKKVDVLQVKEKISFKEEEIVEDVYNYVDKDLNTKWNESQYDNEMYKDLTKKKNYIGQNHLLPNNINKMGHINDRTYKHINNNITNLLEPFGPQIDVEENKIIENVFVPNVEKVIEVNKKIDIPINLPVPYIVPKPKIIDVDVPVFKFNDKYVPVPVSKKIIPKITWTDKIYQVDCLIEKPYLVYHNIIKMVPTDSKITVREYPKGIKKINPEELYEVDNLALWMRVNADLKQEHDQMKNEKYETNKKKGKGETEQLDDNISSDHTCECSESYETYEKLSNEEFNSSNEETTIKSSNENILDTLPLHPGHPLEFIHLQNKWINQDTTNIPDMYDQKYLDAHRNAVFNLTTQMPREAEVEAKQLLYIQKKLQQEETL” reads “failed”.
As for “MSIEAKFKKLGTDNAPGQEVRQSAAGLEALIRGAPIEGRPVDFSHGDVDAHEPTPGAFDLFSAGVQSGGVQAYTEYRGDLGIRDLLAPRLAAFTGAPVDARDGLIITPGTQGALFLAVAATVARGDKVAIVQPDYFANRKLVEFFEGEMVPVQLDYVSADETRAGLDLTGLEEAFKAGARVFLFSNPNNPAGVVYSAEEIGQIAALAARYGATVIADQLYSRLRYAGASYTHLRAEAAVDAENVVTIMGPSKTESLSGYRLGVAFGSRAIIARMEKLQAIVSLRAAGYSQAVLRGWFDEAPGWMEDRIARHQAIRDELLHVLRGCEGVFARTPQAGSYLFPRLPKLAVAPAEFVKILRLQAGVVVTPGTEFSPHTADSVRLNFSQDHEAAVAAARRIVTLVERYRA”, the protein production entry was “not failed”.
For “MSIESLWSSRFQQHIQNIITYFARMINGLLYSFIFISCVGAYYYAQFLKASPSKGISLIIITIVLTFIITRCPIRTFIQKPDAVYLLALEEKLTSYFKKSLLYNYIMQLFPLLFTFLILVPLAMQSLQLTVPFLCTIFIVLMITKAWNMYIHWMWRDSHEKNIWLIIRITCNALIIYMLFYSANVLILGGLLLLLAFLLLYTKKQPTKRIPWDYIIEQEEKMNVRFYQFASIFTDVPQLNKQVNKRKWLTNWIEPLLHKKRATFFYLHTLAFLRGNDYFGIYIRLRLIGAFALYFIPNIYVKGAIAYIVLYMISMQLRSLWKYFSGNIIVALYPIHTEERMKQFLHLIFILLSIQLIVFSSVILIATGQFLHILIIMIVGLLWIKFIIVPKTKQRISAF” the value was “failed”; for “MSIITRLFNNSDFEKLNQLCKLYDDLGYPTNENDLKKRLKKITNHDDYFLLLLIKENKIIGLSGMCKMMFYEKNAEYMRILAFVIHSEFRKKGYGKRLLADSEEFSKRLNCKAITLNSGNRNERLSAHKLYSDNGYVSNTSGFTKQL”, “not failed”.
On to “MSIKVGDVFKYERRFTEEEVFEFANITGDKGRHHMEYDENGRLMVHGLLTASIGTKVGEELHYIARELVSEFIRPVFAGDTITCELTLTNVEQMEGYKKVSIESVYRNQNEKTVLVGTSYGVIRG”, for which the protein production result is reported as “failed”.
For “MSILMPVRNEERFLPAALASLCRQSLTAWELIVVDDGSTDDTPELLRVAAARDRRVRVFNNAGAGLVDALNYGLAHCRAELVARMDGDDISHPQRLERQAAALDADPGLGLVATRFRHFPRHSVGLGMRAYEEWQNGLLTHEEIMRDRFVESPVVHPSVMARRQALTDAGGYRKTGWAEDYDLWLRLAAGGVRFTRLPEVLFFWRERPERATRTMGEYAADAFRACKIHHLCQGFLLGVDNVTLAGAGLEGRAWQRALAREGVRVGRWLDVDPRKQGRILHGAPVTAPDDVRAGAEKILVTVGTRGARDGVRAWARRAGLREGEDFVCVTLEHHHHHH” the value was “failed”; for “MSINDVAKLFGSAWIVMMADVDAASILTGVADGQTYGYRLIILLLVLTLPLYIVQEAAGRVGAVNNGKGLGTLLREKFSQKFALTAAIPMFLVDLFTYVVEYVGIAVGSLMIGVPVYISLPLFFVIHLSIVLTRTYEKMEKTLLGISFFLVIAFIVQAFLRGVSPNQQLLYFSASKSFLFFLAANIGAVVMPFMIFYQASATAYKYNNSALSKDVKVKWSSMETFIGALVSELLMVAIEISTTGLSSSIDPLNYREMSYALSAISGIYSPYVFGIGLICGGLLALIVESLGSAWGTLEALNKHNHRNTTLLYVFESVPAIIIASIFSQNYDQIVNTVLSLMSVTPIIVFIPAFFVGLLVGDEKIMGKYSYSRRRMVIYWITVVILLISGIMSLL”, “failed”.
The result for “MSINPYVTIFLLLAATSSQALSISLADPCTVSDFPALCRSTIKGQTNVNAATDVAIKELMKRTRQAKKIAEKELKRDGGVATCLSNFNSAFDNLEKALTNIKENDGFSLNINLSAALTDYDTCSDSMKETKEVNVIYKSAGVLYRMADNCLALSTLVKH” reads “failed”.
The result for “MSIPNGGSHQSLEALLAAYDFRLRHEPRNCTLWNNRGILLERLNRWTEALASYNCALEITPQRQEALNNRAIVLEHLGRLPEAVESYEQALAIDRQQPEVWNNRGIVLRKLGRLEDAIASYQQAIALAAHYAQAWANCGFALWQQGRYREAVRHYEQSVAIDPDQSSAWRQLGQIYLSVDQPDQALRCLDQAIALQPQQATAWTWRGHALYNLGQYAAALTSYENAELLGDRPLLLSIQRGHTLAQLERYEEALASYAAILPQLTGEAAAEVAYYQGLVWAYLQDWTAALAAFDQAIAGNPDLAEAWYNRAALHARLDQPVAAIADLQQAIALDPDTYRSLAAEDPDYQTLHAHPDWIQLQRA” reads “failed”.
For “MSIPSFLKLVEIQTKIASVFPFMLGTLFVVYQYDMFKPINTLIIFGSMLIFDLTTTAINNYMDYRKATDNHDYDYRTTSNVIGQEQIPVRTVIITIFLMFFIATGLGVWLVFRTDLLVLLIGFVCFCIGILYTFGPVPLSRMPLGEIFSGVTMGFGIFFLAVYVNAYDAGIANLLWQGEMVTIQFNLIEIIRIGVVSLPCIFTIANIMLANNLCDLDEDIRNHRYTLPYYIGRKMGVLLFNTLYYASFLAVVVSVAINFLHPIMLLSLITIYPVYRNLVKFNKEQVKSKTFVIGIRNFVLINATLTILMAVSVVLQQLT”, the protein production entry is “failed”.
